In patent publication US20140212436A1 (Xencor, published 2014):

T1: recombinant human FcγRIIb protein (human, UniProt P31994 46-217)
T1 construct: Bought; injected as analyte in Biacore; also called CD32b
T1 sequence (looked up): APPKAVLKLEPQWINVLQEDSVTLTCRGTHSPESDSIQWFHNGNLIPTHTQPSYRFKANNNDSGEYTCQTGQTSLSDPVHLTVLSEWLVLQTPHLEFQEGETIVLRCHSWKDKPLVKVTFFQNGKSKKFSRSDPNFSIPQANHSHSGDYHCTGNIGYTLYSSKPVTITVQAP


What was measured:
[1] = molecular target: T1, recombinant human FcγRIIb protein; assay: Biacore
Procedure: (§1) Variants were tested for receptor affinity using Biacore technology, also referred to as Biacore herein, a surface plasmon resonance (SPR) based technology for studying biomolecular interactions in real time. SPR measurements were performed using a Biacore 3000 instrument (Biacore, Piscataway, N.J.). A […] (Pierce Biotechnology) CM5 biosensor chip (Biacore) was generated using a standard primary amine coupling protocol. All measurements were performed using HBS-EP buffer (10 mM HEPES pH 7.4, 0.15 M NaCl, 3 mM EDTA, 0.005% vol/vol surfactant P20, Biacore). Antibodies at 20 nM or 50 nM in HBS-EP buffer were immobilized on the protein A/G surface and FcγRs were injected. After each cycle, the surface was regenerated by injecting glycine buffer (10 mM, pH 1.5). Data were processed by zeroing time and response before the injection of FcγR and by subtracting appropriate nonspecific signals (response of reference channel and injection of running buffer). Kinetic analyses were performed by global fitting of binding data with a 1:1 Langmuir binding model using BIAevaluation software (Biacore).
DNA encoding the Fc region of IgE, which contains the binding site for the anti-IgE antibodies used, was synthesized (Blue Heron Biotechnologies) and subcloned into the pTT5 vector. […]

[2] = molecular target: T1, recombinant human FcγRIIb protein; assay: Biacore, antibody captured on protein A
Procedure: as §1
(§2) DNA encoding the Fc region of IgE, which contains the binding site for the anti-IgE antibodies used, was synthesized (Blue Heron Biotechnologies) and subcloned into the pTT5 vector. […] SPR measurements were performed using the protein A/antibody capture method described above, except that analyte was either FcγRIIb or the Fc region of IgE. Data acquisition and fitting are as described above.

[3] = molecular target: T2, Fc region of IgE (UniProt P01854-1 105-428, limits assumed); assay: Biacore, antibody captured on protein A, IgE Fc as analyte
T2 construct: domain: Fc region of IgE; also called IgE Fc
T2 sequence (P01854 other isoform, or with tags, fused parts or gaps limits assumed): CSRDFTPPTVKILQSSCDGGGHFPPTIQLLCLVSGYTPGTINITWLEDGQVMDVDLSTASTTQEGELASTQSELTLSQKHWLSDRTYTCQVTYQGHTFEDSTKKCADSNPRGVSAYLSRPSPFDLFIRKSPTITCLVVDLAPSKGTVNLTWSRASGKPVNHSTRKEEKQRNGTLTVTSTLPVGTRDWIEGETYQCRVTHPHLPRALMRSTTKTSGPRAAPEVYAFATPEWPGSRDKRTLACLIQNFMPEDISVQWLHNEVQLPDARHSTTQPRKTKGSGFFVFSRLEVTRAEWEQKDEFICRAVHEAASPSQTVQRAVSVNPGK
Procedure: as §1, §2

Fold [1]	Kd [2]	Kd [3]	binding result [2]	Binder
1	2000 nM	0.061 nM		H1L1_MaE11 (novel humanized version of MaE11, anti-IgE antibody) (antibody, copies: 2 + 2) heavy: not shown light: DIQLTQSPSSLSASVGDRVTITCRASQSVDYDGDSYMNWYQQKPGQPPKLLIYAASYLGSEIPARFSGSGSGTDFTLTISSLQPEDFATYYCQQSHEDPYTFGAGTKLEIKRTVAAPSVFIFPPSDEQLKSGTASVVCLLNNFYPREAKVQWKVDNALQSGNSQESVTEQDSKDSTYSLSSTLTLSKADYEKHKVYACEVTHQGLSSPVTKSFNRGEC
366	5.6 nM	0.063 nM		MaE11_H1L1_IgG1_S267E/L328F (antibody, anti-IgE) heavy: not shown light: DIQLTQSPSSLSASVGDRVTITCRASQSVDYDGDSYMNWYQQKPGQPPKLLIYAASYLGSEIPARFSGSGSGTDFTLTISSLQPEDFATYYCQQSHEDPYTFGAGTKLEIKRTVAAPSVFIFPPSDEQLKSGTASVVCLLNNFYPREAKVQWKVDNALQSGNSQESVTEQDSKDSTYSLSSTLTLSKADYEKHKVYACEVTHQGLSSPVTKSFNRGEC
		0.064 nM	no binding	MaE11_H1L1_IgG1_G236R/L328R (antibody, anti-IgE; also called H1L1 MaE11 Fc-KO) heavy: not shown light: DIQLTQSPSSLSASVGDRVTITCRASQSVDYDGDSYMNWYQQKPGQPPKLLIYAASYLGSEIPARFSGSGSGTDFTLTISSLQPEDFATYYCQQSHEDPYTFGAGTKLEIKRTVAAPSVFIFPPSDEQLKSGTASVVCLLNNFYPREAKVQWKVDNALQSGNSQESVTEQDSKDSTYSLSSTLTLSKADYEKHKVYACEVTHQGLSSPVTKSFNRGEC
